In the assay the target is T1, CHO cell expressed recombinant human beta secretase proteolytically cleaved with HIV protease (human, UniProt P56817 61-453, glycosylated (CHO cell expressed)).
T1 construct: N-terminus at V40 after cleavage of the F39-V40 bond; The transmembrane and cytoplasmic domains are deleted; also called HIV protease treated beta secretase; processed enzyme
As to the kind of experiment: affinity chromatography, peptide immobilised on resin.

The text below walks through data of patent US7384773 (Pfizer, dated 2008).

Non-standard residues stand in square brackets, D forms with d. No end group written: not given here. Sta = CC(C)C[C@H](N)[C@@H](O)CC(=O)O

T1 sequence (P56817 other isoform, or with tags, fused parts or gaps): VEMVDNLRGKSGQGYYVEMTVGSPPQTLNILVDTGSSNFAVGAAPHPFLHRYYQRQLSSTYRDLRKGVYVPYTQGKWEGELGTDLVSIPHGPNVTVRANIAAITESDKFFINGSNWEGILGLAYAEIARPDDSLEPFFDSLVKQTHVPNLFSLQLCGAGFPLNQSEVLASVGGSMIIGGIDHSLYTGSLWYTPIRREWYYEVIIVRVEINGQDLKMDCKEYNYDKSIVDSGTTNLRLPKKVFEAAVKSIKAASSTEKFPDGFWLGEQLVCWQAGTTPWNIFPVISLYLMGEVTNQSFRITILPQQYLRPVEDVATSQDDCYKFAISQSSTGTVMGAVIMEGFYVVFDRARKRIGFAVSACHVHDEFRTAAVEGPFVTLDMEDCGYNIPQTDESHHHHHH

For the molecule SEVN[Sta]VAEFRGGC (also: coupled to Sulfolink resin (via Cys)) [synthetic peptide Ser-Glu-Val-Asn-Sta-Val-Ala-Glu-Phe-Arg-Gly-Gly-Cys (Sta=statine)], the binding result is on record as “binds”.
